Measurements: patent US20230331836A1 (SUZHOU TRANSCENTA THERAPEUTICS, published 2023)

T1: hCLDN18.2 peptide (amino acid residues 28-37 of hCLDN18.2) (human)
T1 construct: Synthesised by Sangon Biotech; coated on ELISA plates; also called antigen peptide; hCLDN18.2 Peptide (aa28-37)
T1 peptide: DQWSTQDLYN

T2: Human recombinant CLDN18.2 (N-6His) variant (human)
T2 construct: Bought fusion polypeptide; also called recombinant hCLDN18.2 variant protein; Novoprotein NC101
T2 chain: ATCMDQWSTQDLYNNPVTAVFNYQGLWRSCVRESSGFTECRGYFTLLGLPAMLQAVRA

T3: human CLDN18.1 (human, UniProt P56856 1-261)
T3 construct: also called hCLDN18.1
T3 sequence: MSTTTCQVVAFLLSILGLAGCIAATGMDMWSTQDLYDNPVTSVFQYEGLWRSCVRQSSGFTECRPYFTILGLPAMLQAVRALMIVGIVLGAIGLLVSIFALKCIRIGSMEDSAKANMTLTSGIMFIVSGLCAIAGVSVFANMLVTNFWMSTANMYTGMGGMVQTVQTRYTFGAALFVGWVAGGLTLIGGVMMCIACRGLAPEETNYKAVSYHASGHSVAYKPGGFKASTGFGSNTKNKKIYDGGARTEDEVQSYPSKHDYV


Legend:
[1] = target: T1, hCLDN18.2 peptide (amino acid residues …); assay: ELISA: hCLDN18.2 peptide (aa 28-37) coated on the plate at 1 ug/ml, antibody dilution series up to 150 ng/mL, detection with goat anti-mouse IgG-HRP, OD450-OD620
Method: (§1) 1 μg/ml of peptide ([…]) was coated onto the high-binding clear polystyrene 96 well plates and blocked with blocking buffer. Serial diluted antibodies (from 150 to 0.0732 ng/ml) in blocking buffer were then added and incubated for 1.5 hrs at room temperature. The plate was washed 6 times using washing buffer and then 100 μl/well Goat pAb to Ms IgG(HRP) was added for incubation at room temperature for 1.5 hr. After washing with washing buffer, TMB was added to react with HRP on the plate. Then OD450 nm of the plate was read by SpectraMax i3x (Molecular Devices). 14G11G2D2 and 69H2F7E6 can specifically bind with the peptide with high affinity while GC182 can not recognize the epitope in the linear peptide. (FIG. 3)

[2] = target: T2, Human recombinant CLDN18.2 (N-6His) …; assay: BLI (ForteBio Octet RED 96): His-tagged recombinant hCLDN18.2 variant loaded on Ni-NTA biosensors, antibody in solution at 50 nM and 25 nM
Method: (§2) 100 nM human recombinant CLDN18.2 (N-6His) (Novoprotein, NC101) protein in 1×Kinetics Buffer ((PBS+0.1% BSA+0.02% Tween20) were loaded onto pre-wet Ni-NTA biosensors (PALL, 18-5101) for 200s. After equilibrated in 1×Kinetics Buffer as baseline (60s), the sensor was immersed into serial diluted antibodies (50 nM, 25 nM) with 1×Kinetics Buffer respectively and incubated for 200s to determine the association (kon), followed by dissociation in 1×Kinetics Buffer for 200s (koff). The biosensors are regenerated for 5s in Regeneration Buffer, followed by neutralization for 5s in Neutralization Buffer for 3 times. All procedure were performed at 30° C. with Octet RED 96 (PALL). The binding affinity KD was calculated and analyzed using the ratio of koff to kon. (FIG. 6).

human CLDN18.1 [3] = target: T3, human CLDN18.1; assay: ICC on FFPE HEK293-CLDN18.1 cell block sections; clone 69H2F7E6; '-' = negative staining
[4] = target: T2, Human recombinant CLDN18.2 (N-6His) …; assay: ELISA on coated recombinant CLDN18.2 (N-6His) variant (1 µg/ml)
Method: 1 μg/ml of human recombinant CLDN18.2 (N-6His) variant or human recombinant CLDN18.1 (N-8His) variant (100 μL/well) was coated onto the high-binding clear polystyrene 96 well plates and blocked with blocking buffer. Serial diluted antibodies (from 100 to 0.0244 ng/ml) in blocking buffer were added and incubated for 1.5 hrs at room temperature. The plate was washed 6 times using washing buffer (PBS+0.1% Tween) washer and then 100 μl/well Goat pAb to Ms IgG (HRP) was added for incubation at RT for 1.5 hr. After washing with washing buffer, TMB was added to react with RP on the plate. Then OD450 nm of the plate was read by SpectraMax i3x (Molecular Devices).

[5] = target: T2, Human recombinant CLDN18.2 (N-6His) …; assay: BLI (ForteBio Octet RED 96), His-tagged antigen on Ni-NTA sensors, antibody 50 and 25 nM in solution, 30 C
Method: as §2

human CLDN18.1 [6] = target: T3, human CLDN18.1; assay: ICC on FFPE HEK293-CLDN18.1 cell block sections; clone 14G11F5E1; '-' = negative staining
[7] = target: T1, hCLDN18.2 peptide (amino acid residues …); assay: ELISA on coated peptide
Method: as §1

EC50 [1] [µg/mL]	koff [2] [s⁻¹]	kon [2] [M⁻¹ s⁻¹]	binding result (human CLDN18.1 [3])	EC50 [4] [µg/mL]	Kd [5] [nM]	binding result (human CLDN18.1 [6])	Binder	binding result [7]
0.0143	0.000695	471000	no binding (tested: 1 nM)	0.0139	1.48		69H2 (antibody, mouse IgG1, kappa, V domains shown, Mouse antibody; the recombinant form is VH/VL fused to mouse IgG1 / kappa constant regions; also called 69H2F7E6; 69H2D3B1) VH: QVQLQQSGPELMKPGASLQISCKASGYFFTTYYIHWVKQRPGQGLEWIGWIYPRGGNTVYNEKFKGKATLTSDTSSSTAYMQLSSLTSEDSAVYYCAINYRSTFGYWGQGTLVTVSA VL: DVLMTQTPLSLPVSLGDQASISCRSSQNIVHSNGNTYLEWYLQKPGQSPKLLIYKISNRFSGVPDRFSGSGSGTDFTLKISRVEAEDLGVYYCFQGSHVPFTFGSGTKLEIKR	
0.027	0.000111	522000		0.0127	0.213	no binding (tested: 0.5 nM)	14G11 (antibody, mouse IgG1, kappa, V domains shown, Mouse antibody; the recombinant form is VH/VL fused to mouse IgG1 / kappa constant regions; also called 14G11G2D2; 14G11A4E1) VH: QVQLQQSGPELVRPGASVKISCKASGYRFTRNYFHWVKQRPGQGLEWIGWIYPGGFDIEYSEKFKGKATLTTDTSSSTAYMLLTSLTSEDSAVYYCAINYGSTFGYWGQGTLVTVSV VL: DVLMTQTPLSLPVSLGDQASISCRSSQNIVHSNGNTYLEWYLQRPGQSPKLLIYKVSNRFSGVPDRFSGSGSGTDFTLKINRVEAEDLGVYYCFQGSHVPFTFGSGTKLEIKR	
							GC182 (antibody, V domains shown, also called anti-CLDN18.2 antibody GC182) VH: QIQLVQSGPELKKFGETVKISCKASGYTFTDYSIHWVKQAPGKGLKWMGWINTETGVPTYADDFKGRFAFSLETSASTAYLQINNLKNEDTATYFCARRTGFDYWGQGTTLTVSS VL: DIVMTQAAFSIPVTLGTSASISCRSSKNLLHSDGITYLYWYLQRPGQSPQLLIYRVSNLASGVPNRFSGSESGTDFTLRISRVEAEDVGVYYCVQVLELPFTFGGGTKLEIK	no binding (tested: 150 ng/ml (highest concentration tested))
